Results reported in PMC7553779 (eLife, 2020).

B1: truncated human acid-sensing ion channel 1a with the 60 carboxyl terminal residues removed (hASIC1a^ΔC) (domain or fragment)
chain: MELKAEEEEVGGVQPVSIQAFASSSTLHGLAHIFSYERLSLKRALWALCFLGSLAVLLCVCTERVQYYFHYHHVTKLDEVAASQLTFPAVTLCNLNEFRFSQVSKNDLYHAGELLALLNNRYEIPDTQMADEKQLEILQDKANFRSFKPKPFNMREFYDRAGHDIRDMLLSCHFRGEVCSAEDFKVVFTRYGKCYTFNSGRDGRPRLKTMKGGTGNGLEIMLDIQQDEYLPVWGETDETSFEAGIKVQIHSQDEPPFIDQLGFGVAPGFQTFVACQEQRLIYLPPPWGTCKAVTMDSDLDFFDSYSITACRIDCETRYLVENCNCRMVHMPGDAPYCTPEQYKECADPALDFLVEKDQEYCVCEMPCNLTRYGKELSMVKIPSKASAKYLAKKFNKSEQYIGENILVLDIFFEVLNYETIEQKKAYEIAGLLGDIGGQMGLFIGASILTVLELFDYAYEVIKHKLCRR
notes: Trimer in the cryo-EM structures; […]; also called apo-hASIC1a^ΔC
B2: Mambalgin1 (Mamba1) (peptide)
chain: LKCYQHGKVVTCHRDMKFCYHNTGMPFRNLKLILQGCSSSCSETENNKCCSTDRCNK
notes: also called wild-type Mamba1

Experiments:
[1] = biological target: the molecule itself; test: cryo-EM structure; apo-hASIC1a^ΔC, single-particle cryo-EM, 2.7 mg/ml, 20 mM Tris pH 8.0, 200 mM NaCl, 0.05% DDM, 0.01% CHS; C3 symmetry imposed; 3.56 Å
[2] = biological target: T1, chicken acid-sensing ion channel 1 (cASIC1), full-length (chicken, UniProt Q1XA76 1-527); test: cell-based or functional assay
T1 sequence (looked up): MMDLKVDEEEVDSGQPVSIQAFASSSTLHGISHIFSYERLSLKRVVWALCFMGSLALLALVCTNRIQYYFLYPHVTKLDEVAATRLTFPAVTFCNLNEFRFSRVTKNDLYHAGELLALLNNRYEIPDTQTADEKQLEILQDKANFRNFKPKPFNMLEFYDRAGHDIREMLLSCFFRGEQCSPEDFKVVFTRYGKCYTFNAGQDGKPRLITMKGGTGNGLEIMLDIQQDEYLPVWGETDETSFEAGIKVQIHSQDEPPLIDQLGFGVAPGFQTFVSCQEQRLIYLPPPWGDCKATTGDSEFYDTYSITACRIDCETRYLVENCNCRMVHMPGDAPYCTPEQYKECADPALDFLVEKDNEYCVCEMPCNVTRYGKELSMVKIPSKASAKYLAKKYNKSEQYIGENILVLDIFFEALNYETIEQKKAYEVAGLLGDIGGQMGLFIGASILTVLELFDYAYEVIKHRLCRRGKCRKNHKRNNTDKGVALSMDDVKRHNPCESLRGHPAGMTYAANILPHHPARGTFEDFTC

[3] = biological target: T2, human acid-sensing ion channel 1a (hASIC1a), full-length, wild type (human, UniProt P78348-2 1-528); test: cell-based or functional assay
T2 sequence (looked up): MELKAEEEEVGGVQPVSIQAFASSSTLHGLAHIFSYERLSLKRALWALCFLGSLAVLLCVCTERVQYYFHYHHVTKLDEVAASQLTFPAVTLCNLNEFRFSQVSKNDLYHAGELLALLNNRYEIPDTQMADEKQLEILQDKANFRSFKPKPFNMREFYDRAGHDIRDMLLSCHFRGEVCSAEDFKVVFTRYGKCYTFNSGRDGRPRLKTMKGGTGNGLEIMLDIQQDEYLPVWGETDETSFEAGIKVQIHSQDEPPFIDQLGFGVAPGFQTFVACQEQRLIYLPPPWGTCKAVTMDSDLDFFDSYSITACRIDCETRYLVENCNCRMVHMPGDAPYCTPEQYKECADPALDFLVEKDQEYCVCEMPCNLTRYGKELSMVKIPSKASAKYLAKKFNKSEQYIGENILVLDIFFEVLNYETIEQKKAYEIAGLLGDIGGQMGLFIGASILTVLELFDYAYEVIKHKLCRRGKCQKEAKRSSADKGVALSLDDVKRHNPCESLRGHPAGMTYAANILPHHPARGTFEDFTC

[4] = biological target: B1; test: cryo-EM structure; hASIC1a^ΔC-Mamba1 complex, toxin added in a 6:1 molar ratio of toxin to channel, 1 hr at 4°C, 20 mM Tris pH 8.0, 200 mM NaCl, 0.05% DDM, 0.01% CHS; 3.1 mg/ml; 3.90 Å; details: both partners purified

Binder	stoichiometry N [1]	IC50 of inhibition of acid-evoked (pH 6.0) currents, whole-cell patch clamp, full-length cASIC1 in CHO cells [2] [nM]	IC50 of inhibition of acid-evoked (pH 6.0) currents, whole-cell patch clamp, full-length hASIC1a in CHO cells [3] [nM]	IC50 of inhibition of full-length hASIC1a in CHO cells ('the reported IC50', Figure 1b) [3] [µM]	stoichiometry N [4]
B1	3	–	–	–	–
B2	–	124	197	0.149	1 Mamba1 per hASIC1a^ΔC subunit
